What was measured:
Experiment in all cases: cell-based or functional assay
[1] = target: HIV-1 IAVI-C22 envelope glycoprotein (Env) on pseudovirus (HIV-1)
[2] = target: HIV-1 MGRM-AG-005 Env (on pseudovirus) (HIV-1)
[3] = target: HIV-1 envelope glycoprotein (Env) of isolate MGRM-C-014, on pseudovirus (HIV-1)
[4] = target: HIV-1 94UG103 Env (on pseudovirus) (HIV-1)
[5] = target: HIV-1 92UG024 Env (on pseudovirus) (HIV-1)
[6] = target: HIV-1 93UG077 Env (on pseudovirus) (HIV-1)
[7] = target: HIV-1 MGRM-D-001 Env (on pseudovirus) (HIV-1)
[8] = target: HIV-1 CMU02 Env (on pseudovirus) (HIV-1)
[9] = target: HIV-1 JRCSF Env (on pseudovirus) (HIV-1) (UniProt P20871)
[10] = target: HIV-1 envelope glycoprotein (Env) of isolate MGRM-C-019, on pseudovirus (HIV-1)
[11] = target: HIV-1 92UG005 Env (on pseudovirus) (HIV-1)
[12] = target: HIV-1 envelope glycoprotein (Env) of isolate MGRM-C-026, on pseudovirus (HIV-1)
[13] = target: HIV-1 APV6 Env (on pseudovirus) (HIV-1)
[14] = target: HIV-1 APV13 Env (on pseudovirus) (HIV-1)
[15] = target: HIV-1 envelope glycoprotein (Env) of isolate MGRM-C-022, on pseudovirus (HIV-1)
[16] = target: HIV-1 envelope glycoprotein (Env) of isolate MGRM-C-015, on pseudovirus (HIV-1)
[17] = target: HIV-1 MGRM-F1-013 Env (pseudovirus) (HIV-1)
[18] = target: HIV-1 MGRM-D-001 envelope glycoprotein (Env) on pseudovirus (HIV-1)
[19] = target: HIV-1 Env of isolate MG RM-AG-005 (HIV-1)
[20] = target: HIV-1 Env of isolate MG RM-AG-006 (HIV-1)
[21] = target: HIV-1 Env of isolate 92UG005 (subtype D) (HIV-1)
[22] = target: HIV-1 Env of isolate MG RM-AG-003 (HIV-1)
[23] = target: HIV-1 APV17 envelope glycoprotein (Env) on pseudovirus (HIV-1)
[24] = target: HIV-1 Env of isolate MGRM-F1-010 (HIV-1)
[25] = target: HIV-1 Env of isolate MGRM-F1-004 (HIV-1)

Chain of PGT-141 (4964_G22; 4993_K13) (antibody) (VH): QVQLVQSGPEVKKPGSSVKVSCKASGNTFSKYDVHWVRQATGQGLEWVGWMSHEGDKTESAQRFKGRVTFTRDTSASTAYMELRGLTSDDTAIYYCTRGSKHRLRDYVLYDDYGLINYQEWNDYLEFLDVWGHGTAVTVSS
Chain of PGT-141 (4964_G22; 4993_K13) (antibody) (VL): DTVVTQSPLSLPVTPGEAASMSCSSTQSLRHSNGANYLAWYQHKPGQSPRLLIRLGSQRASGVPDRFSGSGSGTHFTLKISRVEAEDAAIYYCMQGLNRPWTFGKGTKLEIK
Chain of PGT-143 (4980_N08) (antibody) (VH): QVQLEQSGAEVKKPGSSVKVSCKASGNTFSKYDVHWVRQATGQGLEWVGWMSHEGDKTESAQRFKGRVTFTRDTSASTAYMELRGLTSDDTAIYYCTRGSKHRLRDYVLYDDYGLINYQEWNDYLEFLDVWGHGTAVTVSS
Chain of PGT-143 (4980_N08) (antibody) (VL): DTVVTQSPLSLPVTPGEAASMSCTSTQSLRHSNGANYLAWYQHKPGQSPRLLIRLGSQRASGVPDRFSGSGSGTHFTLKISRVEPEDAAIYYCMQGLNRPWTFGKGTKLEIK
Chain of PGT-144 (4970_K22) (antibody) (VH): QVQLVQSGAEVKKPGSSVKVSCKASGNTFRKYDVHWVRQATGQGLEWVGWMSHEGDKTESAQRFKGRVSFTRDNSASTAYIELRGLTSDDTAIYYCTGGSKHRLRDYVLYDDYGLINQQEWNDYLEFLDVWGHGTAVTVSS
Chain of PGT-144 (4970_K22) (antibody) (VL): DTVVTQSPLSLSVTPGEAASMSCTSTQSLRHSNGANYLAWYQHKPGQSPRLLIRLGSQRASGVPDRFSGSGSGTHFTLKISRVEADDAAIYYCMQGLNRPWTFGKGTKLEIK

Substance | IC90 (pseudovirus neutralization) [1] | IC50 (ug/ml), pseudovirus neutralization [2] | IC50, pseudovirus neutralization [3] | IC50 (ug/ml), pseudovirus neutralization [4] | IC50 (ug/ml), pseudovirus neutralization [5] | IC50 (ug/ml), pseudovirus neutralization [6] | IC50 (ug/ml), pseudovirus neutralization [7] | IC50 (ug/ml), pseudovirus neutralization [8] | IC50 (ug/ml), pseudovirus neutralization [9] | IC50, pseudovirus neutralization [10] | IC50 (ug/ml), pseudovirus neutralization [11] | IC50, pseudovirus neutralization [12] | IC50 (ug/ml), pseudovirus neutralization [13] | IC50 (ug/ml), pseudovirus neutralization [14] | IC50, pseudovirus neutralization [15] | IC50, pseudovirus neutralization [16] | other results
4E10 (antibody) | 16.4 mg/L | – | – | – | – | – | – | – | – | – | – | – | – | – | – | – | –
PGT-144 (4970_K22) (antibody) | – | > 10 µg/mL | > 50 mg/L | > 10 µg/mL | > 10 µg/mL | > 10 µg/mL | > 10 µg/mL | > 10 µg/mL | 0.128 µg/mL | 0.513 mg/L | > 10 µg/mL | > 50 mg/L | > 10 µg/mL | > 10 µg/mL | 2.58 mg/L | 0.236 mg/L | –
PGT-143 (4980_N08) (antibody) | – | 0.244 µg/mL | 8.81 mg/L | > 10 µg/mL | > 10 µg/mL | > 10 µg/mL | > 10 µg/mL | > 10 µg/mL | 0.0064 µg/mL | 0.004 mg/L | > 10 µg/mL | > 50 mg/L | 4.43 µg/mL | > 10 µg/mL | 0.103 mg/L | 0.085 mg/L | –
2F5 (antibody) | > 50 mg/L | – | – | – | – | – | – | – | – | – | – | – | – | – | – | – | IC50 (µg/ml), pseudovirus neutralization [17]: 4.57 µg/mL
5123_A06 (PGT-125) (antibody) | – | – | – | – | – | – | – | – | – | – | – | – | – | – | – | – | IC50 (ug/ml), neutralizing activity [18]: 2.31 µg/mL; neutralization IC50 [18]: 2.31 mg/L; neutralization IC80 [18]: > 10 mg/L; neutralization IC90 [18]: > 10 mg/L; neutralization IC95 [18]: > 10 mg/L; neutralization IC50 [19]: > 50 mg/L; neutralization IC50 [20]: 0.008 mg/L; IC50 (µg/mL), pseudovirus neutralization [21]: > 50 µg/mL; neutralization IC50 [22]: > 50 mg/L; IC50 (ug/ml), neutralizing activity [23]: 7.31 µg/mL; neutralization IC50 [23]: 7.31 mg/L; neutralization IC80 [23]: > 10 mg/L; neutralization IC90 [23]: > 10 mg/L; neutralization IC95 [23]: > 10 mg/L
2G12 (antibody) | > 50 mg/L | – | – | – | – | – | – | – | – | – | – | – | – | – | – | – | IC50 (µg/ml), pseudovirus neutralization [17]: > 50 µg/mL
VRC01 (antibody) | – | – | > 50 mg/L | – | – | – | – | – | – | 1.13 mg/L | – | 0.707 mg/L | – | – | 13 mg/L | 1.57 mg/L | IC50, pseudovirus neutralization [24]: 0.097 mg/L; IC50, pseudovirus neutralization [25]: 0.305 mg/L
5141_B17 (PGT-126) (antibody) | – | – | – | – | – | – | – | – | – | – | – | – | – | – | – | – | IC50 (ug/ml), neutralizing activity [18]: 0.0639 µg/mL; neutralization IC50 [19]: 1.21 mg/L; neutralization IC50 [20]: 0.01 mg/L; IC50 (µg/mL), pseudovirus neutralization [21]: 0.037 µg/mL; neutralization IC50 [22]: > 50 mg/L; IC50 (ug/ml), neutralizing activity [23]: 0.501 µg/mL
PGT-141 (4964_G22; 4993_K13) (antibody) | – | 0.392 µg/mL | 11.8 mg/L | > 10 µg/mL | > 10 µg/mL | > 10 µg/mL | > 10 µg/mL | > 10 µg/mL | 0.0047 µg/mL | 0.008 mg/L | > 10 µg/mL | > 50 mg/L | 5.08 µg/mL | > 10 µg/mL | 0.381 mg/L | 0.033 mg/L | –

From US20200024330A1
